Experimental findings from patent US20210238276A1 (INTEGRAL MOLECULAR, published 2021) are described below.

T1: mouse GLUT1 (mmGLUT1) (mouse, UniProt P17809 1-492)
T1 construct: whole, on cells
T1 sequence (looked up): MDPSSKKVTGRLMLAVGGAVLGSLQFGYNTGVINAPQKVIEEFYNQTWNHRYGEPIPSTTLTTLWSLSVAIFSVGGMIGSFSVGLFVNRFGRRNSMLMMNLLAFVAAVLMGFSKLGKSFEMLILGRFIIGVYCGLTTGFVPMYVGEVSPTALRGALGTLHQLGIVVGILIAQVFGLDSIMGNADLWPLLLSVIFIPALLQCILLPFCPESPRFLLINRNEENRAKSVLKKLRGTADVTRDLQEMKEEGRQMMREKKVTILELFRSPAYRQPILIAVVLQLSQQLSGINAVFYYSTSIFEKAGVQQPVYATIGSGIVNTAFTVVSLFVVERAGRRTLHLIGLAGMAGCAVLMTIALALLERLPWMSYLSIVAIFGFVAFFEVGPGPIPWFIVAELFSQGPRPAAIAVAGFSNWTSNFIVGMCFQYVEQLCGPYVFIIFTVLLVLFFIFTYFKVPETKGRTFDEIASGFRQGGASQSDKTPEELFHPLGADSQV

T2: human GLUT3 (hsGLUT3) (human, UniProt P11169 1-496)
T2 construct: whole, on cells
T2 sequence (looked up): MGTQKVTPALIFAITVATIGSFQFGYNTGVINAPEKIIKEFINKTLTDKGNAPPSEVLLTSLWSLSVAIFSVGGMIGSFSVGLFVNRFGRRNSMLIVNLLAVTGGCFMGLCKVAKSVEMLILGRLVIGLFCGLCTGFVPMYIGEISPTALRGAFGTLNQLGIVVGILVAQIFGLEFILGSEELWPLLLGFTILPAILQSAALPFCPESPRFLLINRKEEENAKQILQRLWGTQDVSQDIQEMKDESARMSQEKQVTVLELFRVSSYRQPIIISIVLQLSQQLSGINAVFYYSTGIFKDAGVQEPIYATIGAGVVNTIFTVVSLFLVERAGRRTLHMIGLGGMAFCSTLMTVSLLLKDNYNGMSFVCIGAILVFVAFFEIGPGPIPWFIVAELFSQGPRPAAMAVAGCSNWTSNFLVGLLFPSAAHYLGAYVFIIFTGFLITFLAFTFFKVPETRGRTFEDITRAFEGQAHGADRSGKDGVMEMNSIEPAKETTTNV

T3: human GLUT2 (hsGLUT2) (human, UniProt P11168 1-524)
T3 construct: whole, on cells
T3 sequence (looked up): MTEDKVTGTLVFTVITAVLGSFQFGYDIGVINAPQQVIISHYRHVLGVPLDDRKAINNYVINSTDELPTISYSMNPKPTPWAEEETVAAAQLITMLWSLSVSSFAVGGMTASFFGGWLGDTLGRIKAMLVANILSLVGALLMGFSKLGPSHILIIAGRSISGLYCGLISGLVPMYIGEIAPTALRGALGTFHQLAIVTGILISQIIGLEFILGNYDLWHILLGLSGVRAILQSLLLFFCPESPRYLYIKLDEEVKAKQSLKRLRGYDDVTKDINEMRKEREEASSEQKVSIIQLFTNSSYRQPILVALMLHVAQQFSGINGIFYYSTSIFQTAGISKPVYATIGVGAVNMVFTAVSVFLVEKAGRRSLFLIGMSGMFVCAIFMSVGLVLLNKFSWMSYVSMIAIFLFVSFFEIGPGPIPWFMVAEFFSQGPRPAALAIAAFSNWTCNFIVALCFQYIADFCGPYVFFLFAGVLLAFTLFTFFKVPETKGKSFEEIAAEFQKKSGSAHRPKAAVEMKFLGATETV

T4: human GLUT1 (hsGLUT1) (human, UniProt P11166 1-492)
T4 construct: whole, on cells
T4 sequence (looked up): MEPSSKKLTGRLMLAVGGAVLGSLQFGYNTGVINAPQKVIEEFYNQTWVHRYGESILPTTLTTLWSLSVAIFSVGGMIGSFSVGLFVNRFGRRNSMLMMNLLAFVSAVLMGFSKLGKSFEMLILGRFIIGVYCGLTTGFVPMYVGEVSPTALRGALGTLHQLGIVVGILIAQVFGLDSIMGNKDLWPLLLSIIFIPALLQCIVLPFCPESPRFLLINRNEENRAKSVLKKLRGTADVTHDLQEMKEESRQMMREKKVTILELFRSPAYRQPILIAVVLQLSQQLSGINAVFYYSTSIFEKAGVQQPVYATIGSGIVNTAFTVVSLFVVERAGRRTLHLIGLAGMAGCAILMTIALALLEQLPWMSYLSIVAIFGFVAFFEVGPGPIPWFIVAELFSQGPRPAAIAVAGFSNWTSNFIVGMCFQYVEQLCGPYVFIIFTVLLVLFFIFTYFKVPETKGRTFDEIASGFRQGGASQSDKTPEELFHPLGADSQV

B1: AB111 (Fc fusion)
scFv: ALTQPSSVSANPGETVKITCSGSGSWYGWFQQKSPGSAPVTVIYSNDKRPSDIPSRFSGSKSGSTSTLTITGVQVEDEAVYYCGNWDIFGAGTTLTVLGQSSRSSGGGGSSGGGGSAVTLDESGGGLQTPGGALSLVCKASGFTFSSHGMGWVRQAPGKGLEWVASISTGRYTFYAPAVKGRATISRDNGQSTVRLQLNNLRAEDTATYYCTKCAGLNGCGGGEIDAWGHGTEVIVSS
notes: Bivalent scFv-Fc; also called MAb AB111; not shown: Fc fragment of human IgG1, cloned in frame with the scFv
B2: AB105 (Fc fusion)
scFv: ALTQPSSVSANPGETVEITCSGDSSYYGWYQQKSPGSAPVTVIYANTNRPSDIPSRFSGSASGSTATLTITGVQAEDEAVYYCGSADSTYAGIFGAGTTLTVLGQSSRSSGGGGSSGGGGSAVTLDESGGGLQTPGGALSLICKASGFTFSSYTMNWVRQAPGKGLEWVGVISNSGRTTNYGAAVQGRATISRDNGQSTVRLQLNNLRAEDTGTYYCAKSSASASCAWWAGRSYPCSANRIDAWGHGTEVIVSS
notes: Bivalent scFv-Fc; also called MAb AB105; not shown: Fc fragment of human IgG1, cloned in frame with the scFv
B3: AB108 (Fc fusion)
scFv: ALTQPSSVSANLGGTVKITCSGSSGSYGWYQQKAPGSAPVTLIYRNDKRPSDIPSRFSGSESGSTGTLTITGVQAEDEAVYFCGGYDSSAGYAAFGAGTTLTVLGQSSRSSGGGGSSGGGGSAVTLDESGGGLQTPGGALSLVCKASGFTFSSHGMGWVRQAPGKGLEWVGSISTGRYTFYAPAVKGRATISRDNGQSTLRLQLNNLRAEDTGTYYCTKCAGLNGCGGGEIDAWGHGTEVIVSS
notes: Bivalent scFv-Fc; also called MAb AB108; not shown: Fc fragment of human IgG1, cloned in frame with the scFv

The target of one assay is T1, mouse GLUT1 (mmGLUT1). Briefly: flow cytometry, transfected HEK-293T. The procedure:
(§1) HEK-293T cells were transfected by CaPO₄ with plasmids in 6-well culture plates (Falcon) at 750,000 cells/well. At 48 hours post transfection, cells were stained with anti-V5 and anti-GLUT4 MAbs (purified scFv, 2 μg/ml) followed by biotinylated goat anti-mouse or human antibody (1:500) and streptavidin-PerCP (1:500). Fluorescence was detected using an Intellicyt high-throughput flow cytometer (HTFC; Intellicyt, Albuquerque, N. Mex.). For cell permeabilization, cells were treated with saponin at 0.1% in PBS for 20 minutes. To discriminate intact (live) and permeabilized (dead) cells without the use of detergent, propidium iodide (PI) was added to HEK-293T cells at 1 ug/ml just prior to flow cytometry. Where indicated, cytochalasin B (Sigma) was used at a final concentration of 10 uM and phloretin (Sigma) was used at a final concentration of 100 uM, each added in 10% NGS for 30 minutes prior to antibody staining as well as included with the primary antibody.
For the molecule B1, the binding result is given as “no binding (tested: 2 µg/ml)”.
On the same count and under the same terms, under B2 stands “no binding (tested: 2 µg/ml)”; under B3, “no binding (tested: 2 µg/ml)”.

Another assay concerns the target T2, human GLUT3 (hsGLUT3). Kind of assay: flow cytometry, transfected HEK-293T. The procedure: as §1
In general terms: Flow cytometry measures light scatter and fluorescence of single cells or particles in a stream.
As for B1, the binding result is “no binding (tested: 2 µg/ml)”.
For the molecule B2, the binding result is on record as “no binding (tested: 2 µg/ml)”.
Same read-out and setting: under B3 stands “no binding (tested: 2 µg/ml)”.

The target in a further assay is T3, human GLUT2 (hsGLUT2). Briefly: flow cytometry, transfected HEK-293T. On the procedure: as §1
On to B1, for which the binding result was “no binding (tested: 2 µg/ml)”.
The same measure, in the same setting: in the case of B2 it was “no binding (tested: 2 µg/ml)”; in that of B3, “no binding (tested: 2 µg/ml)”.

A further assay deals with T4, human GLUT1 (hsGLUT1). Briefly: flow cytometry, transfected HEK-293T. The procedure: as §1
With B1, the binding result was “no binding (tested: 2 µg/ml)”.
Same read-out and setting: under B2 stands “no binding (tested: 2 µg/ml)”; under B3, “no binding (tested: 2 µg/ml)”.
